Test results: the supplement of paper PMC10065799, “High-throughput profiling of sequence recognition by tyrosine kinases and SH2 domains using bacterial peptide display” (eLife, 2023)

Assays:
[1] = biological target: SHP2-C SH2; test: SH2 binding enrichment of the phosphorylated peptide, bacterial display (enrichment ratio); higher = better substrate or ligand; peptides without Tyr show the background
[2] = biological target: Grb2 SH2 (UniProt P62993); test: as above
[3] = biological target: c-Src SH2; test: as above
[4] = system: c-Src; test: phosphorylation enrichment, bacterial display (enrichment ratio); higher = better substrate or ligand; peptides without Tyr show the background
[5] = biological target: EPHB1 (UniProt P54762); test: as above
EPHB1, sequence (P54762 whole entry, looked up): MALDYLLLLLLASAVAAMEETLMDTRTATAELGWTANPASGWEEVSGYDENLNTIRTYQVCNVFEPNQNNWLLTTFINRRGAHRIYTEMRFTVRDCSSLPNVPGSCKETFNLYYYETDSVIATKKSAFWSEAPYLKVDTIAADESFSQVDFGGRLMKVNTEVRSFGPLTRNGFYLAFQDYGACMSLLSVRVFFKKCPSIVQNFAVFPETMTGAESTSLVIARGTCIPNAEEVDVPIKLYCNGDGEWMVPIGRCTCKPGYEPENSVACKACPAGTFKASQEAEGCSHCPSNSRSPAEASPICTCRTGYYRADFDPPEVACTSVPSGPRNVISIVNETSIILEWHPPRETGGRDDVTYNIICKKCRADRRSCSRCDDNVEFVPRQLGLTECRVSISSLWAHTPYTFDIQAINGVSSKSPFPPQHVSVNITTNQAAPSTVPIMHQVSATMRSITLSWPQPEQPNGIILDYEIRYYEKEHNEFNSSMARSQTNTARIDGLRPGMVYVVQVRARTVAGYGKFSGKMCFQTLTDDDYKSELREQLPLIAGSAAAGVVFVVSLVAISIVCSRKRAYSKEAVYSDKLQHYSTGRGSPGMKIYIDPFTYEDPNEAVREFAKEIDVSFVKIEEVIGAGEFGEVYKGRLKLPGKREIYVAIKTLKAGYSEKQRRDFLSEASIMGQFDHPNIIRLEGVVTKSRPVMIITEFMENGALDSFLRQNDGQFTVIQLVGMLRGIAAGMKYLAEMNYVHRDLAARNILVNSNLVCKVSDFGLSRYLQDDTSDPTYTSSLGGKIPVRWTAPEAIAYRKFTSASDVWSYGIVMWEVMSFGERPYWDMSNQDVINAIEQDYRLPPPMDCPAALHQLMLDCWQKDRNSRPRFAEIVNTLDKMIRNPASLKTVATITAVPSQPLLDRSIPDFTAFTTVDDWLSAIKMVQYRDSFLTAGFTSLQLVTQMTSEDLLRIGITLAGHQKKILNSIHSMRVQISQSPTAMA

[6] = biological target: Fyn (UniProt P06241); test: as above
Fyn, sequence (P06241 whole entry, looked up): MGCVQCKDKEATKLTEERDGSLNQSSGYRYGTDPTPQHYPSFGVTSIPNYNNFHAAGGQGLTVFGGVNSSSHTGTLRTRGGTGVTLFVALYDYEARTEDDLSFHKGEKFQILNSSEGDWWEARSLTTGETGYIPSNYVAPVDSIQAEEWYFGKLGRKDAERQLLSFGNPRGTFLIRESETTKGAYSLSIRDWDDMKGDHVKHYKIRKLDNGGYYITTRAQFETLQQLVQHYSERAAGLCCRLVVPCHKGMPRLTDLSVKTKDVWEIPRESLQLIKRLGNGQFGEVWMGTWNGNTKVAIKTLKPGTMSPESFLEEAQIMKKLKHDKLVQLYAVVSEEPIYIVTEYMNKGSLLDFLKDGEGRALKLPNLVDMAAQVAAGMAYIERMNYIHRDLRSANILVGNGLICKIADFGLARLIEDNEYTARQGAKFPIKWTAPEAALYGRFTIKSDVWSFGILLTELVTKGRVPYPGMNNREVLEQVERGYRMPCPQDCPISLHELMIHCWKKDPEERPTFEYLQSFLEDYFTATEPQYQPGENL

[7] = biological target: EPHB2 (UniProt P29323); test: as above
EPHB2, sequence (P29323 whole entry, looked up): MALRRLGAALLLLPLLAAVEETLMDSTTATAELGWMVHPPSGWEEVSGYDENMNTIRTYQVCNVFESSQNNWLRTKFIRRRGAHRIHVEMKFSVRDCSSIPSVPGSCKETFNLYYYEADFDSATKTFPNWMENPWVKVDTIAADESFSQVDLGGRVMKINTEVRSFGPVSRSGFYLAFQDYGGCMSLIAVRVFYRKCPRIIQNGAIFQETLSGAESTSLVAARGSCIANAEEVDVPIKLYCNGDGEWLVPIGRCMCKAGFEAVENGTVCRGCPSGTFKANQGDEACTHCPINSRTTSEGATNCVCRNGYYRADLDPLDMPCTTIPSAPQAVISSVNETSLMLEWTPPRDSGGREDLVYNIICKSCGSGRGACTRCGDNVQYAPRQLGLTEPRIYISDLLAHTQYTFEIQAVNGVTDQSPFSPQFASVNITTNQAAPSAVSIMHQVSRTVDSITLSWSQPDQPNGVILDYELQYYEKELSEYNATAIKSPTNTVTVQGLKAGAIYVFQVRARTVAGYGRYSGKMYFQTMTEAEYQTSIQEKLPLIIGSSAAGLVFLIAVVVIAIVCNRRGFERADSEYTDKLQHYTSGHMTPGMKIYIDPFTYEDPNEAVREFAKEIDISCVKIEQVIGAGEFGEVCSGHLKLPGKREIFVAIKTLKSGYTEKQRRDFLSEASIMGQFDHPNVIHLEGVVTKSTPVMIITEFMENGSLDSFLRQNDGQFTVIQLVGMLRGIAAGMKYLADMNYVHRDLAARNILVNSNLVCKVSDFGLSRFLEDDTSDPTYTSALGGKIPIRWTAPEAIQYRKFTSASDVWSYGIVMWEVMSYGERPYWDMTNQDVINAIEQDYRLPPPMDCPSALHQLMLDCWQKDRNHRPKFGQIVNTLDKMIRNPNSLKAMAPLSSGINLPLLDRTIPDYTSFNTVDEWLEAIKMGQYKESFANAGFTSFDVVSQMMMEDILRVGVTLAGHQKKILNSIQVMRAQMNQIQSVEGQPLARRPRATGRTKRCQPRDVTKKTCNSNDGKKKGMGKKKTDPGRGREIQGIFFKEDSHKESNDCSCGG

[8] = system: Fer (mouse); test: as above
[9] = biological target: FGFR1 (UniProt P11362); test: as above
FGFR1, sequence (P11362 whole entry, looked up): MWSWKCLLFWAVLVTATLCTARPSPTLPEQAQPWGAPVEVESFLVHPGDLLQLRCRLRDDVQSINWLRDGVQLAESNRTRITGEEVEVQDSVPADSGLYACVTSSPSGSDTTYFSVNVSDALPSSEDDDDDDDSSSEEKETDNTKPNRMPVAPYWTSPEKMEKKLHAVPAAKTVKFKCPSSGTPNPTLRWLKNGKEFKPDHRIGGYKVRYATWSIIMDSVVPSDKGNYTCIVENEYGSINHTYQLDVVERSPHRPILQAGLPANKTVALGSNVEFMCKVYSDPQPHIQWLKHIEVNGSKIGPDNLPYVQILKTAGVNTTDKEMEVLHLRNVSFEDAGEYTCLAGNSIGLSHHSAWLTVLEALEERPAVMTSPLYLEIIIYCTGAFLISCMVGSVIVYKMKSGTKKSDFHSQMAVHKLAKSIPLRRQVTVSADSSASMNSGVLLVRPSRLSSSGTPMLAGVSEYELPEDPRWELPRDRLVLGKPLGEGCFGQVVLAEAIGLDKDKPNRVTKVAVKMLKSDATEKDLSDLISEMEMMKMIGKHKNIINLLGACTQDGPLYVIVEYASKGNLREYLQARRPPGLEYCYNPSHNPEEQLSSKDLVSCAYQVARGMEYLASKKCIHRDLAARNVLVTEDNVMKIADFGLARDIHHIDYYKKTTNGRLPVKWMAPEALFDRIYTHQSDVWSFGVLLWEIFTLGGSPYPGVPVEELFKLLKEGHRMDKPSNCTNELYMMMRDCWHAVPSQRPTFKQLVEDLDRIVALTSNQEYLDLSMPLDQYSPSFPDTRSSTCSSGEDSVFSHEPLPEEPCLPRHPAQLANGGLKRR

[10] = biological target: Hck (UniProt P08631); test: as above
Hck, sequence (P08631 whole entry, looked up): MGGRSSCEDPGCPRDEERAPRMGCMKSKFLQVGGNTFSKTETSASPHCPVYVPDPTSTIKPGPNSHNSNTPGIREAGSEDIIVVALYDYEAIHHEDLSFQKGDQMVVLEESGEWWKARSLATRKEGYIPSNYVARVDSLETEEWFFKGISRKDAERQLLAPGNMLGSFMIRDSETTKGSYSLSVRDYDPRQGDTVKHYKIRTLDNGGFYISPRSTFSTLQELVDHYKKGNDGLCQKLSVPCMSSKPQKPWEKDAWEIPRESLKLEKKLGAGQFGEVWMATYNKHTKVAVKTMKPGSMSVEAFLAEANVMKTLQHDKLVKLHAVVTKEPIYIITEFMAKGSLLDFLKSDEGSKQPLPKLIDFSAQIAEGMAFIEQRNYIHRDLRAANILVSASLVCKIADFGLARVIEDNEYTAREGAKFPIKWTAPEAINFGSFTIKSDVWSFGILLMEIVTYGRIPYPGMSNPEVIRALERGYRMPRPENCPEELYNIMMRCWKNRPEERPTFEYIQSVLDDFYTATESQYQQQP

[11] = biological target: Jak2 (UniProt O60674); test: as above
[12] = system: AncSZ; test: as above
[13] = system: c-Abl (mouse); test: as above
[14] = biological target: MERTK (UniProt Q12866); test: as above
[15] = biological target: FGFR3 (UniProt P22607); test: as above
FGFR3, sequence (P22607 whole entry, looked up): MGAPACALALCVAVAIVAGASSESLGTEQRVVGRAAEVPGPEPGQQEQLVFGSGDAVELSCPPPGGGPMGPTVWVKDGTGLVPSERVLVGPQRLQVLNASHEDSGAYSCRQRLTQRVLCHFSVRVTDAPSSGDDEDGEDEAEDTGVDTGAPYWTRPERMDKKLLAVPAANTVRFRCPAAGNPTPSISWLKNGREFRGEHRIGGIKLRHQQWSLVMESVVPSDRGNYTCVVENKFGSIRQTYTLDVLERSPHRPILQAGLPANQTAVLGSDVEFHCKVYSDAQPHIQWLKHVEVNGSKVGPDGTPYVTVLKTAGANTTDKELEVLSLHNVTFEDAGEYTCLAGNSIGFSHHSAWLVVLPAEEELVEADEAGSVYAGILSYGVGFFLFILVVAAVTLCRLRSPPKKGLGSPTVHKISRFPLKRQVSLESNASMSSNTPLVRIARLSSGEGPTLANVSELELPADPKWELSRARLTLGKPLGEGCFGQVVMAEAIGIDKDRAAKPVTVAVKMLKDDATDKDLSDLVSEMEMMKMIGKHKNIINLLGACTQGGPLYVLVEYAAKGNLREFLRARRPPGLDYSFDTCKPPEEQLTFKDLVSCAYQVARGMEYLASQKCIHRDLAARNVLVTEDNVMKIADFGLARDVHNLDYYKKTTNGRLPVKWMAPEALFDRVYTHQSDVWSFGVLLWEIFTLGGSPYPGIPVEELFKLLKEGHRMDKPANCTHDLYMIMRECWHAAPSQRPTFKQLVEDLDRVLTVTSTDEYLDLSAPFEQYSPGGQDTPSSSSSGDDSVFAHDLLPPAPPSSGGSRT

[16] = biological target: Fes (UniProt P07332); test: as above
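Throughout, for SH2 binding enrichment of the phosphorylated peptide, bacterial display: peptide library displayed on the E. coli surface as eCPX fusions, selected cells deep-sequenced, score is each peptide's frequency after selection divided by its frequency in the input.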
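Throughout, for phosphorylation enrichment, bacterial display: 11-residue human phosphosite peptides and single-mutation variants displayed on the E. coli surface, counted by deep sequencing, each peptide's frequency after selection divided by its frequency in the unselected input library; frequency after pTyr selection over input frequency; kinase dosed for 20-30% of maximal phosphorylation in three min.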

Sequence	SH2 binding enrichment [1]	SH2 binding enrichment [2]	SH2 binding enrichment [3]	phosphorylation enrichment [4]	phosphorylation enrichment [5]	phosphorylation enrichment [6]	phosphorylation enrichment [7]	phosphorylation enrichment [8]	phosphorylation enrichment [9]	phosphorylation enrichment [10]	phosphorylation enrichment [11]	phosphorylation enrichment [12]	phosphorylation enrichment [13]	phosphorylation enrichment [14]	phosphorylation enrichment [15]	phosphorylation enrichment [16]
LDFNEYFRFLN [HPRT1_Y198_D201Y_YF]	1.2	1.49	0.719	3.62	0.592	2.25	0.924	0.562	2.7	1.08	6.54	2.34	1.6	0.573	2.1	1.29
LDFNEYFRNLN [HPRT1_Y198_D201N_YF]	0.37	0.693	0.617	0.585	0.988	1	1.13	1.35	1.2	0.979	3.21	2.42	1.24	1.02	1.6	2.65
LDLSFYHTSSS [EMD_Y182_P183H_YF]	0.701	1	0.773	0.879	0.845	0.553	0.676	0.423	0.575	0.575	1.04	1.21	0.644	0.414	0.903	1.19
LDLSFYTTSSS [EMD_Y182_P183T_YF]	0.657	0.945	0.595	0.785	1.04	0.93	1.29	0.882	1.12	0.999	2.49	2.23	2.47	0.897	1.53	2.65
LDLSYYTTSSS [EMD_Y182_P183T]	0.64	0.73	1.49	0.908	0.978	0.967	0.863	0.635	1.07	1.01	1.93	1.84	0.982	0.731	1.21	1.36
LDPDSYNMFEN [FOXC1_Y159]	0.504	0.667	0.575	0.579	0.637	0.531	0.865	0.527	0.675	0.465	1.44	1.38	0.74	0.635	0.855	1.14
LENQTYFRSFE [AKAP9_Y2482_K2484R]	0.546	0.803	0.624	0.55	0.487	0.851	0.811	0.632	0.571	0.678	1.09	0.881	0.843	0.537	1.02	1.14
LEQRPYRRESE [KCNJ12_Y427]	0.945	0.621	0.267	0.385	0.591	0.91	0.643	0.367	0.333	0.52	0.461	0.746	0.519	0.618	0.666	1.01
LFSNAYLSDLA [ALDH1A1_Y119_N121S_YF]	0.601	0.783	0.36	2.79	2.12	1.23	1.15	1.31	2.39	0.974	2.06	2.21	2.14	1.81	1.42	2.92
LGPDGYSTVDQ [ARVCF_Y901_R906Q]	1.77	1.21	36	0.848	0.876	0.982	1.22	0.833	1.04	0.9	1.72	1.63	1.31	0.707	1.21	2.87
LGQGKYSEVFE [CSNK2A1_Y50_R47Q]	0.829	0.95	3.54	0.574	0.508	0.489	0.552	0.455	0.51	0.477	0.857	1.05	0.709	0.535	0.591	1
LGQRIYQFIQS [DYRK1B_Y271_YF]	1.33	1.02	2.23	4.15	11.7	2.42	5.42	10.1	2.23	4.98	0.725	0.916	1.3	8.85	1.5	1.26
LIGWRYDDPEV [HSPA9_Y128_R126W]	1	1.01	3.68	0.43	0.544	0.538	0.859	0.416	0.419	0.471	1.17	0.984	0.652	0.451	0.607	1.24
LILENYGADID [DNAH5_Y596]	0.685	0.939	0.669	0.56	1.11	0.883	0.856	0.809	0.935	0.889	1.25	1.84	0.841	0.574	1.32	1.4
LKGQVYILGQE [ASS1_Y359_R363Q]	0.761	1.17	0.539	1.28	1.09	0.816	0.848	0.802	0.939	1.07	1.98	1.84	1.77	0.843	1.26	2.47
LKRCQYVTKKV [ALDOA_Y204_E207K]	1.02	0.946	0.788	0.545	0.432	0.806	0.506	0.582	0.807	0.371	0.752	1	0.605	0.535	0.548	0.821
LLPNAYIYVVQ [L1CAM_Y418_A415P]	0.707	0.683	0.432	1	1.71	1.05	1.32	0.539	1.34	0.908	1.69	2.28	1.07	1.01	1.5	2.47
LLREWYMIFSR [HUWE1_Y4066_I4069F]	1.05	1.21	0.852	1.45	1.07	0.755	1.57	0.943	0.713	0.915	2.17	2.11	1.8	0.932	1.14	2
LMIEEYLTKEL [BAG3_Y457]	1.16	0.981	0.514	1.18	0.911	0.723	0.993	0.629	0.759	0.685	2.83	2.23	1.42	0.872	1.14	2.04

Further lines, with some results ahead:

SH2 binding enrichment [1]	SH2 binding enrichment [2]	SH2 binding enrichment [3]	Sequence	phosphorylation enrichment [4]	phosphorylation enrichment [5]	phosphorylation enrichment [6]	phosphorylation enrichment [7]	phosphorylation enrichment [8]	phosphorylation enrichment [9]	phosphorylation enrichment [10]	phosphorylation enrichment [11]	phosphorylation enrichment [12]	phosphorylation enrichment [13]	phosphorylation enrichment [14]	phosphorylation enrichment [15]	phosphorylation enrichment [16]
0.455	0.881	0.456	LEPGIYIPEDD [XPNPEP3_Y455_I450L]	0.518	0.716	0.705	0.717	0.709	0.556	0.558	1.24	1.58	0.974	0.653	1.22	1.5
0.785	0.619	0.529	LEYAKYGSLRG [RET_Y809_V804L]	2.49	3.25	1.87	2.96	2.26	0.651	2.57	0.55	0.63	1.73	0.687	0.618	0.765
0.835	0.621	0.622	LHAALYERKLL [TTLL5_Y542]	0.479	1.27	1.12	0.798	0.63	0.896	0.772	1.04	1.43	0.934	0.544	1.13	1.91
0.512	0.917	0.425	LHNLSYQLEAE [PKP2_Y616]	0.646	0.81	0.393	0.615	0.605	0.483	0.699	1.37	1.12	1.36	0.517	0.934	1.45
1.29	1.14	1.05	LLIVEYAKFGS [RET_Y806_YF]	1.13	5.93	1.4	1.72	1.16	0.909	1.25	1.6	1.79	1.67	0.585	1.36	1.83
0.553	1.06	0.686	LLNAIYLSAKW [SERPING1_Y294]	1.04	1.3	1.12	0.794	0.692	0.464	2.18	1.41	1.61	1.22	0.503	2.29	1.66
0.916	1.09	0.593	LLQKTYNFNVL [SLC4A1_Y553_P548L_YF]	0.594	0.909	0.749	0.984	1.05	0.889	0.88	0.81	1.41	0.77	0.997	1.24	1.2
2.41	1.97	1.82	LLRLAYLADVF [ZBED5_Y476_I480V]	0.47	0.74	0.484	0.583	0.633	0.577	0.628	0.924	1.18	0.704	0.537	0.725	1.19
0.66	0.795	0.456	LLTKVYVVEGS [ZMPSTE24_Y253_P248L]	0.657	0.816	0.586	0.994	0.819	0.9	0.795	1.23	1.65	0.773	0.668	1.23	2
0.704	0.921	0.57	LMFPDYLPCSV [SAG_Y129_T125M]	0.772	1.07	0.743	0.92	1.19	7.55	0.604	3.69	2.76	0.985	0.486	4.58	1.55
